This is an account of results in PMC4636328, “Two Polyhydroxyalkanoate Synthases from Distinct Classes from the Aromatic Degrader Cupriavidus pinatubonensis JMP134 Exhibit the Same Substrate Preference” (PLoS ONE, 2015).

What is called Km is the concentration of substrate that gives half-maximal velocity. By Vmax is commonly meant the top rate of the reaction or transport when substrate is in excess. In general, kcat refers to the maximal rate divided by the concentration of active sites. As usually defined, the kcat/Km is the turnover number divided by the Michaelis constant.

Substrate in data set [1]: CCCCC[C@@H](O)CC(=O)SCCNC(=O)CCNC(=O)[C@H](O)C(C)(C)COP(=O)(O)OP(=O)(O)OC[C@H]1O[C@@H](n2cnc3c(N)ncnc32)[C@H](O)[C@@H]1OP(=O)(O)O
Nature of the data set: purified protein. The class given is biochemical, Pseudomonas aeruginosa. The settings on record: 50 mM PBS, pH 7.5, 20 mM MgCl2, 0.5 mM DTNB, R/S substrate mixture, R isomer counted.

Substrate in data set [2]: C[C@@H](O)CC(=O)SCCNC(=O)CCNC(=O)[C@H](O)C(C)(C)COP(=O)(O)OP(=O)(O)OC[C@H]1O[C@@H](n2cnc3c(N)ncnc32)[C@H](O)[C@@H]1OP(=O)(O)O
Nature of the data set: purified protein. The class given is biochemical, Cupriavidus pinatubonensis. The settings on record: 50 mM PBS, pH 7.5, 20 mM MgCl2, 0.5 mM DTNB, R/S substrate mixture, R isomer counted.

B1: PhaC1Pa (Pseudomonas aeruginosa PAO1) (protein)
chain: MSQKNNNELPKQAAENTLNLNPVIGIRGKDLLTSARMVLLQAVRQPLHSARHVAHFSLELKNVLLGQSELRPGDDDRRFSDPAWSQNPLYKRYMQTYLAWRKELHSWISHSDLSPQDISRGQFVINLLTEAMSPTNSLSNPAAVKRFFETGGKSLLDGLGHLAKDLVNNGGMPSQVDMDAFEVGKNLATTEGAVVFRNDVLELIQYRPITESVHERPLLVVPPQINKFYVFDLSPDKSLARFCLRNGVQTFIVSWRNPTKSQREWGLTTYIEALKEAIEVVLSITGSKDLNLLGACSGGITTATLVGHYVASGEKKVNAFTQLVSVLDFELNTQVALFADEKTLEAAKRRSYQSGVLEGKDMAKVFAWMRPNDLIWNYWVNNYLLGNQPPAFDILYWNNDTTRLPAALHGEFVELFKSNPLNRPGALEVSGTPIDLKQVTCDFYCVAGLNDHITPWESCYKSARLLGGKCEFILSNSGHIQSILNPPGNPKARFMTNPELPAEPKAWLEQAGKHADSWWLHWQQWLAERSGKTRKAPASLGNKTYPAGEAAPGTYVHER
notes: full length, C-terminal His6 tag, pET28a, E. coli BL21(DE3), Ni-NTA purified
With B1, in data set [1], the Km was found to be 67.28 ± 12.86 µM, the maximal velocity (Vmax) was 39 µM/min, the catalytic constant (kcat) came to 0.94 ± 0.0883 s⁻¹ and the catalytic efficiency (kcat/Km) stood at 13800 ± 4170 M⁻¹ s⁻¹.

B2: PhaC1 (Cupriavidus pinatubonensis JMP134) (protein)
chain: MATGKGAAASSTEGKSQPFKFPPGPLDPATWLEWSRQWQGPEGNGGTVPGGFPGFEAFAASPLAGVKIDPAQLAEIQQRYMRDFTELWRGLAGGDTESAGKLHDRRFASEAWHKNAPYRYTAAFYLLNARALTELADAVEADPKTRQRIRFAVSQWVDAMSPANFLATNPDAQNRLIESRGESLRAGMRNMLEDLTRGKISQTDETAFEVGRNMAVTEGAVVFENEFFQLLQYKPLTDKVYTRPLLLVPPCINKFYILDLQPEGSLVRYAVEQGHTVFLVSWRNPDASMAGCTWDDYIENAAIRAIEVVRDISGQDKINTLGFCVGGTIISTALAVLAARGEHPVASLTLLTTLLDFTDTGILDVFVDEPHVQLREATLGGASGGLLRGVELANTFSFLRPNDLVWNYVVDNYLKGNTPVPFDLLFWNGDATNLPGPWYCWYLRHTYLQNELKEPGKLTVCNEPVDLGAINVPTYIYGSREDHIVPWTAAYASTALLKNDLRFVLGASGHIAGVINPPAKKKRSHWTNDALPESAQDWLAGAEEHHGSWWPDWMTWLGKQAGAKRAAPTEYGSKRYAAIEPAPGRYVKAKA
notes: full length (591 residues), C-terminal His6 tag, pET28a, E. coli BL21(DE3), Ni-NTA purified, about 65 kDa
Regarding B2, in data set [2], the Km worked out at 45.46 ± 6.02 µM, the Vmax was 38.3 µM/min, the turnover number (kcat) was 0.664 ± 0.0352 s⁻¹ and the kcat/Km is 14700 ± 3170 M⁻¹ s⁻¹.

B3: PhaC2 (Cupriavidus pinatubonensis JMP134) (protein)
chain: MTTAVGTRTLAKTTKKAKKPAASAVAPEAIVDSAPAMTGPNPFVGLRPEDMVSTAQQIGAQCVQEPTLLLQQQTKLAQDLFAVVDGSAPPPCTRDRRFGDPAWQDNPVYRMALQGYQAWRDALTGFVTGSVMDGRSKERAQYFTDLLIDAVAPTNTLLGNPAALRKTFESGGLNLVSGLVNLLTDTLTNQGMPSQVDKSAFRIGKDLAATPGAVVFRNDVLELIQYTPTTANVHARPQLIVPPQVNKFYVFDLSQGKSMVEYLVRNEMQVFMVSWRNPTTLHRDWNLDTYVGALIEAIHAIRDITGSPDVNLHGACSGAMTMSALMGYCAARGEKLVNAATLMVSVFGLDSQSQLGLFATPEAIDAARQGSQARGVLDGGELGRVFAWMRPNDLVWNYWVNNYLLGKAPPAFDILYWNNDTTRLPAGLHGQLLDMLTLNQLSTPGALRVLGQPIDLSAVDCDKYVLAGMTDHITPWKGVYRSVRAFGGKTEFVLSSSGHVQSLINPPGNAKAKFFLNDAQMADPEAWLEGATVTPSSWWEHWSEWLKTRSGPLNAAPSRLGSDRHAPCADAPGRYVTEA
notes: full length (579 residues), C-terminal His6 tag, pET28a, E. coli BL21(DE3), Ni-NTA purified, about 65 kDa
As to B3, in data set [2], the Km turned out to be 115.93 ± 9.15 µM, the Vmax amounted to 1.74 µM/min, the catalytic constant (kcat) was determined as 0.0625 ± 0.000333 s⁻¹ and the specificity constant (kcat/Km) worked out at 533 ± 33.3 M⁻¹ s⁻¹.
